Source: PMC10207894, “A MOF/DNA luminescent sensing platform for detection of potential COVID-19 biomarkers and drugs†”

Target: interleukin-10 (IL-10) (UniProt P22301 19-178)
Assay: luminescence quenching on Y-MOF; 1 uM protein; no obvious quenching at 514 nm; Y-MOF suspension 0.1 g/L (900 uL) mixed with 1 uM DNA (100 uL) 30 min; excitation 380 nm, IL-6 0-14.4 nM; buffer, salt, pH and temperature not stated
Conditions: protein: commercial; chain copies: 2; label: 5'-FAM; stem-loop

interleukin-10 (IL-10), sequence (P22301 19-178): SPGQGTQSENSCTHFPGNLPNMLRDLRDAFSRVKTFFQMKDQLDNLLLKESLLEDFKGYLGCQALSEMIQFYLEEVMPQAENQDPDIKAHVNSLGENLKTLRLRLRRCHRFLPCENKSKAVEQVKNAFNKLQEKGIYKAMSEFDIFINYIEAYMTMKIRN

B1: S2 (extended IL-6 aptamer) (structured_DNA)
DNA: TTTTTTTAAGCTTACCTGCCATGCCAGTACCCCCAGGAGAAGATTCCAAAGATGTGGCCGCCCCACAAAAAAAA
B1: no binding.
